Literature values in patent US8623366B2, “Methods for treating visceral pain by administering antagonist antibodies directed against calcitonin gene-related peptide” (Labrys Biologics, Inc., priority 2009, dated 2014).

T1: α-rat CGRP (Rattus norvegicus, UniProt P01256)
T1 sequence (P01256 83-119 limits assumed): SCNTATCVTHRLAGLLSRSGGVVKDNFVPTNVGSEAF

T2: human α-CGRP (Homo sapiens, UniProt P06881)
T2 sequence (P06881 83-119 limits assumed): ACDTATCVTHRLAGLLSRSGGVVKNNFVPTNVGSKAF


Experiments:
α-rat CGRP = target: T1, α-rat CGRP; conditions: Table 6 reproduced from WO2007/054809; cited from earlier work
human α-CGRP = target: T2, human α-CGRP; conditions: Table 6 reproduced from WO2007/054809; cited from earlier work

| Molecule | Kd (α-rat CGRP) [nM] | Kd (human α-CGRP) [nM] |
| --- | --- | --- |
| M2: G1 variant: HC-FW3 L99A A100R [Clone M2] | 58 | 3 |
| M8: G1 variant: HC-FW3 L99N A100G [Clone M8] | 41.4 | 0.58 |
| M10: G1 variant: HC-FW3 L99S A100S [Clone M10] | 83.9 | 1.08 |
| M15: G1 variant: HC-FW3 L99T A100P [Clone M15] | 63.9 | 0.1 |
| M18: G1 variant: HC-FW3 L99V A100G [Clone M18] | 67.8 | 0.44 |
| M46: G1 variant: L1 R28N; L2 G50A L56T; H2 E54K A57N S58E H61F; HC-FW3 L99T A100V (antibody, chains of the INN, looked up, variant L:R28N L:G50A L:L56T H:E54K H:A57N H:S58E H:H61F H:L99T H:A100V, V domains shown) VH: EVQLVESGGGLVQPGGSLRLSCAASGFTFSNYWISWVRQAPGKGLEWVAEIRSKSDNEATFYAEAVKGRFTISRDNAKNSLYLQMNSLRAEDTAVYYCTVYFDYGLAIQNYWGQGTLVTVSS VL: EIVLTQSPATLSLSPGERATLSCKASKNVTTYVSWYQQKPGQAPRLLIYAASNRYTGIPARFSGSGSGTDFTLTISSLEPEDFAVYYCSQSYNYPYTFGQGTKLEIK | 163 | 3.37 |
| M51: G1 variant: L1 R28N; L2 L56I; H2 E54K A57G; HC-FW3 L99T A100V (antibody, chains of the INN, looked up, variant L:R28N L:L56I H:E54K H:A57G H:L99T H:A100V, V domains shown) VH: EVQLVESGGGLVQPGGSLRLSCAASGFTFSNYWISWVRQAPGKGLEWVAEIRSKSDGSATHYAEAVKGRFTISRDNAKNSLYLQMNSLRAEDTAVYYCTVYFDYGLAIQNYWGQGTLVTVSS VL: EIVLTQSPATLSLSPGERATLSCKASKNVTTYVSWYQQKPGQAPRLLIYGASNRYIGIPARFSGSGSGTDFTLTISSLEPEDFAVYYCSQSYNYPYTFGQGTKLEIK | 65.6 | 0.82 |
| M49: G1 variant: L1 R28N; L2 G50A L56T; H2 E54K A57N S58Y H61F; HC-FW3 L99T A100V (antibody, chains of the INN, looked up, variant L:R28N L:G50A L:L56T H:E54K H:A57N H:S58Y H:H61F H:L99T H:A100V, V domains shown) VH: EVQLVESGGGLVQPGGSLRLSCAASGFTFSNYWISWVRQAPGKGLEWVAEIRSKSDNYATFYAEAVKGRFTISRDNAKNSLYLQMNSLRAEDTAVYYCTVYFDYGLAIQNYWGQGTLVTVSS VL: EIVLTQSPATLSLSPGERATLSCKASKNVTTYVSWYQQKPGQAPRLLIYAASNRYTGIPARFSGSGSGTDFTLTISSLEPEDFAVYYCSQSYNYPYTFGQGTKLEIK | 822 | 3.72 |
| M47: G1 variant: L1 R28N; L2 G50A L56T; H2 E54K A57N S58G; HC-FW3 L99T A100V (antibody, chains of the INN, looked up, variant L:R28N L:G50A L:L56T H:E54K H:A57N H:S58G H:L99T H:A100V, V domains shown) VH: EVQLVESGGGLVQPGGSLRLSCAASGFTFSNYWISWVRQAPGKGLEWVAEIRSKSDNGATHYAEAVKGRFTISRDNAKNSLYLQMNSLRAEDTAVYYCTVYFDYGLAIQNYWGQGTLVTVSS VL: EIVLTQSPATLSLSPGERATLSCKASKNVTTYVSWYQQKPGQAPRLLIYAASNRYTGIPARFSGSGSGTDFTLTISSLEPEDFAVYYCSQSYNYPYTFGQGTKLEIK | 457 | 2.08 |
| M83: G1 variant: L1 R28N T30V; L2 A51H L56T; H2 E54K A57N S58M H61F; HC-FW3 L99T A100V (antibody, chains of the INN, looked up, variant L:R28N L:T30V L:A51H L:L56T H:E54K H:A57N H:S58M H:H61F H:L99T H:A100V, V domains shown) VH: EVQLVESGGGLVQPGGSLRLSCAASGFTFSNYWISWVRQAPGKGLEWVAEIRSKSDNMATFYAEAVKGRFTISRDNAKNSLYLQMNSLRAEDTAVYYCTVYFDYGLAIQNYWGQGTLVTVSS VL: EIVLTQSPATLSLSPGERATLSCKASKNVVTYVSWYQQKPGQAPRLLIYGHSNRYTGIPARFSGSGSGTDFTLTISSLEPEDFAVYYCSQSYNYPYTFGQGTKLEIK | – | 5.83 |
| M71: G1 variant: L1 R28N T30G; L2 L56I; H2 E54K A57Y; HC-FW3 L99T A100V (antibody, chains of the INN, looked up, variant L:R28N L:T30G L:L56I H:E54K H:A57Y H:L99T H:A100V, V domains shown) VH: EVQLVESGGGLVQPGGSLRLSCAASGFTFSNYWISWVRQAPGKGLEWVAEIRSKSDYSATHYAEAVKGRFTISRDNAKNSLYLQMNSLRAEDTAVYYCTVYFDYGLAIQNYWGQGTLVTVSS VL: EIVLTQSPATLSLSPGERATLSCKASKNVGTYVSWYQQKPGQAPRLLIYGASNRYIGIPARFSGSGSGTDFTLTISSLEPEDFAVYYCSQSYNYPYTFGQGTKLEIK | 118 | – |
